{"source": "IntAct's records for PubMed 32453716", "parents": {"B1": {"name": "TOG array regulator of axonemal microtubules protein 1 (Homo sapiens), Q9Y4F4 (parent)", "chain": "MAAAPSALLLLPPFPVLSTYRLQSRSRPSAPETDDSRVGGIMRGEKNYYFRGAAGDHGSCPTTTSPLASALLMPSEAVSSSWSESGGGLSGGDEEDTRLLQLLRTARDPSEAFQALQAALPRRGGRLGFPRRKEALYRALGRVLVEGGSDEKRLCLQLLSDVLRGQGEAGQLEEAFSLALLPQLVVSLREENPALRKDALQILHICLKRSPGEVLRTLIQQGLESTDARLRASTALLLPILLTTEDLLLGLDLTEVIISLARKLGDQETEEESETAFSALQQIGERLGQDRFQSYISRLPSALRRHYNRRLESQFGSQVPYYLELEASGFPEDPLPCAVTLSNSNLKFGIIPQELHSRLLDQEDYKNRTQAVEELKQVLGKFNPSSTPHSSLVGFISLLYNLLDDSNFKVVHGTLEVLHLLVIRLGEQVQQFLGPVIAASVKVLADNKLVIKQEYMKIFLKLMKEVGPQQVLCLLLEHLKHKHSRVREEVVNICICSLLTYPSEDFDLPKLSFDLAPALVDSKRRVRQAALEAFAVLASSMGSGKTSILFKAVDTVELQDNGDGVMNAVQARLARKTLPRLTEQGFVEYAVLMPSSAGGRSNHLAHGADTDWLLAGNRTQSAHCHCGDHVRDSMHIYGSYSPTICTRRVLSAGKGKNKLPWENEQPGIMGENQTSTSKDIEQFSTYDFIPSAKLKLSQGMPVNDDLCFSRKRVSRNLFQNSRDFNPDCLPLCAAGTTGTHQTNLSGKCAQLGFSQICGKTGSVGSDLQFLGTTSSHQEKVYASLNFGSKTQQTFGSQTECTSSNGQNPSPGAYILPSYPVSSPRTSPKHTSPLIISPKKSQDNSVNFSNSWPLKSFEGLSKPSPQKKLVSQKSSDPTGRNHGENSQEKPPVQLTPALVRSPSSRRGLNGTKPVPPIPRGISLLPDKADLSTVGHKKKEPDDIWKCEKDSLPIDLSELNFKDKDLDQEEMHSSLRSLRNSAAKKRAKLSGSTSDLESPDSAMKLDLTMDSPSLSSSPNINSYSESGVYSQESLTSSLSTTPQGKRIMSDIFPTFGSKPCPTRLSSAKKKISHIAEQSPSAGSSSNPQQISSFDFTTTKALSEDSVVVVGKGVFGSLSSAPATCSQSVISSVENGDTFSIKQSIEPPSGIYGRSVQQNISSYLDVENEKDAKVSISKSTYNKMRQKRKEEKELFHNKDCEKKEKNSWERMRHTGTEKMASESETPTGAISQYKERMPSVTHSPEIMDLSELRPFSKPEIALTEALRLLADEDWEKKIEGLNFIRCLAAFHSEILNTKLHETNFAVVQEVKNLRSGVSRAAVVCLSDLFTYLKKSMDQELDTTVKVLLHKAGESNTFIREDVDKALRAMVNNVTPARAVVSLINGGQRYYGRKMLFFMMCHPNFEKMLEKYVPSKDLPYIKDSVRNLQQKGLGEIPLDTPSAKGRRSHTGSVGNTRSSSVSRDAFNSAERAVTEVREVTRKSVPRNSLESAEYLKLITGLLNAKDFRDRINGIKQLLSDTENNQDLVVGNIVKIFDAFKSRLHDSNSKVNLVALETMHKMIPLLRDHLSPIINMLIPAIVDNNLNSKNPGIYAAATNVVQALSQHVDNYLLLQPFCTKAQFLNGKAKQDMTEKLADIVTELYQRKPHATEQKVLVVLWHLLGNMTNSGSLPGAGGNIRTATAKLSKALFAQMGQNLLNQAASQPPHIKKSLEELLDMTILNEL", "partner": "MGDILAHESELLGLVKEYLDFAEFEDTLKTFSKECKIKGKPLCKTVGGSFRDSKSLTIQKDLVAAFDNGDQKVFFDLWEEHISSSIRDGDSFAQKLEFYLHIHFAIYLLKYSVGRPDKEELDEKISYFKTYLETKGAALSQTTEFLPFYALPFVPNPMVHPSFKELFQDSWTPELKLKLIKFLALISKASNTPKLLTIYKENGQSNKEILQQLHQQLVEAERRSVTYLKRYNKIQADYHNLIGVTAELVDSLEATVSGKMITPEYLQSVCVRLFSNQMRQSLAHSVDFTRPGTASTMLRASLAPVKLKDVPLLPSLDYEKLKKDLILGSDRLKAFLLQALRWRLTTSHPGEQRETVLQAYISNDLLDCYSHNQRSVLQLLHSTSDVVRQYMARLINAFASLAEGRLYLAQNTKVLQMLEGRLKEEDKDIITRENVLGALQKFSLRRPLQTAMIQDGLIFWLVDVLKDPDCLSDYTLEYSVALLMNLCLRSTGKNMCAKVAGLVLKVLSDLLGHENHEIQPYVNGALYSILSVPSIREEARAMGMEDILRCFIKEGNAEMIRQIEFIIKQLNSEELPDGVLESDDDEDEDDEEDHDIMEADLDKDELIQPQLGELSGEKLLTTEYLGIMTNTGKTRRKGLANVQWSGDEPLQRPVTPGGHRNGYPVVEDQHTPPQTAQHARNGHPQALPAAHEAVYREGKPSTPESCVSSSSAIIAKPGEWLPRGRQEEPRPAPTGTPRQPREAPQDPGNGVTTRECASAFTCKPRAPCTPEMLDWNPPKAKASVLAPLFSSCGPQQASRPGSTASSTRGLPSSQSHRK"}}}
{"variants_of": "B1", "details": "with armc9_human ARMC9, Q7Z3E5"}
{"variant": "L375P", "effect of a mutation on the interaction": "disrupting interaction strength"}
{"variant": "R368W", "effect of a mutation on the interaction": "disrupting interaction strength"}
{"variant": "R1311C", "effect of a mutation on the interaction": "with no effect"}
